Test results reported in the RNAGym collection of RNA variant scans (doi:10.1073/pnas.2313332121).

B1: TPR t1 (parent)
chain: GACCAAUCUGCCCUCAGAGCUCGAGAACAUCUUCGGAUGCAGAGGAGGCAGGCUUCGGUGGCGCGAUAGCGCCAACGUCCUCAACCUCCAAUGCAUCCCACCACAUGAUGAUGCCUGAAGAGCCUUGGUUUUUUG

Variants of: B1
Test: polymerase ribozyme fitness, log enrichment relative to wild type (log ratio); higher = more active; in vitro selection for triplet polymerase activity
Summary of the method: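 In triplicate, a single round of in vitro selection was run on each mutant library, PCR-built and transcribed, covering one subunit of a heterodimeric triplet polymerase ribozyme. Frozen incubation at −7 °C followed annealing with a biotinylated primer, partner subunit and triplets, and extended constructs were then gel-excised, streptavidin-captured and taken through RT-PCR. Fitness is the logarithm of genotype enrichment over wild-type enrichment, from inverse-variance-weighted replicate averages of Illumina-sequenced inputs and outputs. […] only genotypes with ≥10 input reads and ≥1 read per output were kept.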

Variant | polymerase ribozyme fitness (log ratio)
GACCCAUCUGCCCUCAGAGCUCGAGAACAUCUUCGGAUGCAGAGGAGGCAGGCUUCGGUGGCGCGAUAUCGCCAACGUCCUCAACCUCCUAUGCAUCCCACCACAUGAUGAUGCCUGAAGAGCCUUGGUUUUUUG | -0.485
GACCCAUCUGCCCUCAGAGCUCGAGAACAUCUUCGGAUGCAGAGUAGGCAGGCUUCGGUGGCGCGAUAGCGCCAACGUCCUCAACCUCCAAUACAUCCCACCACAUGAUGAUGCCUGAAGUGCCUUGGUUUUUUG | -0.00844
GACCCAUCUGCCCUCAGAGCUCGAGAACAUCUUCGGAUGCAGAGGAGGCAGGCUUCGGUGGCGCGAUAGCGCGAACGUCCUCAACGUCCAAUGCAUCCUACCACAUGAUAAGGCCUGAAGAGCCUUGGUUUUUUG | -7.21
GACCCAUCUGCCCUCAGAGCUCGAGAACAUCUUCGGAUGCAGAGGAGGCAGGCUUCGGUGGCGCGAUAGCGCCAACGUCCUUAGCCUCCAAUGCAUCCCACCACAUGAUGAAGCCUGAAGAGCCUUGGUUUUUUG | -1.06
GACCCAUCUGCCCUCAGAGCUCGAGAACAUCUUCGGAUGCAGAGGAGGCAGGCUUCGGUGGCGCGAUAGCGCCAACGUCCUCAACUUCCAAUGCAUCCCACCACAUGAUGAUGCCUGAAGAGCCUUGGUUUUUUG | -0.23
GACCCAUCUACCCUCAGAGCUCGAGAACAUCUUAGGAUGCAGAGGAGGCAGGCUUCGGUGGCGCGAUAGCGCCAACGUCCUCAACCUCCAAUGCAUCCCACCACAUGAUGAUGCCUGAAGAGUCUUGGUUUUUUG | -0.78
GACCCAUCUGCCCUCAGAGCUCGAGAACAUCUUCGGAUGCAGAGGAGGCAGGCUUCGGUGGUGCGAUAGCGCCAACGUCCUCAACCUCCAAUGCAUCCCACCACAUGAUGAUGCAUGAAGAGCCUUGGUUUUUUG | -1.14
GACCCAUCUGCCCUCAGAGCUCGAGAACAUCUUCGGAUGCAGAGGAGGCAGGCUUCGGUGGCGCGAUAGCGUCAACGUCCUCAACCUCCAAUGCAUCCCACCACAUGAUGAUGCCUGAAGAGCCUUGGUUUUUUG | -1.39
GACCCAUCUGCCCUCAGAGCUCGAGAACAUCUUCGGAUGCAGAGGAGGCAGGCUUGGGUGGCGCGAUAGCGCCAACGUACUCAACCUCCAAUGCAUCCCACCACAAGAUGAUGCCUGAAGAGCCUUGGUUUUUUG | -2.63
GACCCAUCUGCCCUCAGAGCUCGAGAACAUCUUCGGAUACAGAGGAGGCAGGCUUCGGUGGCGCGAUAACGCCAACGUCCUCAACCUCCAAUGCAUCCCACCACAUGAUGAUGCCUGAACAGCCUUGGUUUUUUG | -4.21
GACCCAUCUGCCCUCAGAGCUCGAGAACAUCUUCGGAUGCAGAGGAGGCAGGCUUCGGUGGCGCGAUAGCGCCAACGUCCUCAACCUCCAAUGCAUCCCACCACAUGAUGAUUCCUGAAGAGCCUUGGUUUUUUG | -3.73
GACCCAUCUGCCCUCAGAGCUCGAGAACAUCUUCGGAUGCAGAGGAGGCAGGCUUCGGUGGCGCGAUAGCGCCAACGUCCUCAACCUCCAAUGCAUCCCACCACAUGAUGAUACCUGAAGAGCCUUGGUUUUUUG | -1.96
GACCCAUCUGCCCUCAGAGCUCGAGAACAUCUUCGGAUGCAGAGGAGGCAGGCUUCGGUGGCGCGAUAGCCCCAACGUCCUCAACCUCUAAUGCAUCCCACCACAUGAUGAUGCCUUAAGAGCCUUGGUUCUUUG | -5.27
GACCCAUCUGCCCUCAUAGCUCGAGAACAUCUUCGGAUGCAGAGGAGGCCGGCUUCGGUGGCGCGAUAGCGCCAACGUCCUCAACCUACAAUGCAUCCCACCACAUGAUGAUGCCUGAAGAGCCUUGGUUUUUUG | -4.51
GACCCAUCUGCCCUCAGAGCUCGAGAACAUCUUCGGAUGCAGAGGAGGCAGGCUUCGGUGGCGCGAUAGCUCCAUCGUCCUCAACCUCCAAUGCAUCUCACCACAUGAUGAUGCCUGAAGAGCCUUGGUUUUUUG | -1.25
GACCCAUCUGCCCUCAGAGCUCGAGAACAUCUUCGGAUGCAGAGGAGGCAGGCUUCGGUGGCCCGAUAGCGCCACCGUCCUCAACCUCCAAUGAAUCCCACCACAUGAUGAUCCCUGAAGAUCCUUGGUUUUUUG | -4.55
GACCCAUCUACCCUCAGAGCUCGAGAACAUCUUAGGAUGCAGAGGAGGCAGGCUUCGGUGGCUCGAUAGCGCCAACGUCCUCAACCUCCAAUGCAUCCCACCACAUGAUGAUGCCUGAAGAGCCUUGGUUUUUUG | -4.64
GACCCAUCUGCCCUCAGAGCUCGAGAACAUCUUCGGAUGCAGAGGAGGCAGGCUUUGGUGGCGCGAUAGCGCAAACGUCCUCAACCUCCAAUGCAUCCCACCACAUGAUGAUGCGUAAAGAGCCUUGGUUUUUUG | -7.51
GACCCAUCUGCCCUCAGAGCUCGAGAACAUCUUCGGAUGCAGAGGAGGCAGGCUUCGGUGGCGCGAUAACGCCAACGUCCUCAACCUCCAAUGCAUCCCACCACAUGAUGAUGCCUGAAGAGCCUUGGUUUUUUG | -3.11
GACCCAUCUGCCCUCAGAGCUCGAGAACAUCUUCGGAUGCAGAGGAGGCAGGCUUCGGUGGCGCGAUACCGCCAACGUCCUCAACCUCCAAUGCAUCCCACCACAUGAUGAUGCCUGAAGAGCCUUGGUUUUUUG | -1.74
GACCCAUCUGCCCUCAGAGCUCGAGAACAUCUUCGGAUGCAGAGGAGGCAGGCUUCGGUUGCGCGAUAGCGCCAACGUCCUCAACCUCCAAUGCAUCCCACCACAUGAUGAUGCCUGAAGAGCCUUGAUUUUUUG | -2.44
